Assay results published in patent US20140087995A1 (published 2014).
One block for each binder: values may come before it. Numbered stars: 1 amine (or outer) side, 2 acyl side, 3 side chain; on linkers, the order of the positions; unused ones are H or OH. Bridge positions count the residues as written; N and C are the ends. Side chains are listed from the residue outwards. Ends that are not written are not given here. * marks the point of attachment. C20 diacid = O=C(O)CCCCCCCCCCCCCCCCCCC(=O)*; γGlu = O=C(O)[C@H](CCC(=O)[*:2])N[*:1]

Experiments:
[1] = target: T1, rat amylin receptor (rat calcitonin receptor + rat RAMP 3) (rat, UniProt P32214 25-516; Q9JJ73 23-147); experiment: SPA competition with 125I-rat amylin, membranes of BHK cells with rat calcitonin receptor + rat RAMP3 (Assay VI)
T1 construct: whole, on cells; Membranes of transiently transfected BHK tk'ts 13 cells (Assay VI); also called rAmylin-R; rat amylin 3(a) receptor
T1 sequence (looked up) 1: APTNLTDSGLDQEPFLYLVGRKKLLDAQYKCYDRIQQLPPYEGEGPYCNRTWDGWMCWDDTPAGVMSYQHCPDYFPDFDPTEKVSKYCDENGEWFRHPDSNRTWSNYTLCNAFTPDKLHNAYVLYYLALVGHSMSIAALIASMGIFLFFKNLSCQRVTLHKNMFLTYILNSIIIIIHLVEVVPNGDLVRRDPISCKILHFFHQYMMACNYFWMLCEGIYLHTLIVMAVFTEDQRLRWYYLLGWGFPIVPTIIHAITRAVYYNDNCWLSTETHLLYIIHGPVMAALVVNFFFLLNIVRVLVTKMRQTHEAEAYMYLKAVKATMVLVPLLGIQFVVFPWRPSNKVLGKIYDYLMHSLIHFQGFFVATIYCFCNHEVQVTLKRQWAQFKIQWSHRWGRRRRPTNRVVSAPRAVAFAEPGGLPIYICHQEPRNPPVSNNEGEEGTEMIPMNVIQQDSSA
T1 sequence (looked up) 2: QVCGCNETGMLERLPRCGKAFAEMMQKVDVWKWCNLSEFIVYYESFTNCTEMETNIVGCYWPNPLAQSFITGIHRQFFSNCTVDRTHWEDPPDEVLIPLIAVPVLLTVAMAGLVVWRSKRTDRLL

rat calcitonin receptor [2] = target: T2, rat calcitonin receptor (rat, UniProt P32214 25-516); experiment: ratio IC50 rat calcitonin receptor / IC50 rat amylin receptor (reference)
T2 construct: whole, on cells; Membranes of transiently transfected BHK tk'ts 13 cells (Assay VIII); also called rCTR
T2 sequence (looked up): T1 sequence (looked up) 1

rat calcitonin receptor [3] = target: T2, rat calcitonin receptor; experiment: SPA competition with 125I-calcitonin, membranes of BHK cells with rat calcitonin receptor (Assay VIII)
[4] = target: T3, human calcitonin receptor (human, UniProt P30988 25-474); experiment: ratio IC50 human calcitonin receptor / IC50 human amylin receptor (reference)
T3 construct: whole, on cells; Membranes of a stably transfected BHK cell line (Assay VII); also called hCTR; hCT
T3 sequence (looked up): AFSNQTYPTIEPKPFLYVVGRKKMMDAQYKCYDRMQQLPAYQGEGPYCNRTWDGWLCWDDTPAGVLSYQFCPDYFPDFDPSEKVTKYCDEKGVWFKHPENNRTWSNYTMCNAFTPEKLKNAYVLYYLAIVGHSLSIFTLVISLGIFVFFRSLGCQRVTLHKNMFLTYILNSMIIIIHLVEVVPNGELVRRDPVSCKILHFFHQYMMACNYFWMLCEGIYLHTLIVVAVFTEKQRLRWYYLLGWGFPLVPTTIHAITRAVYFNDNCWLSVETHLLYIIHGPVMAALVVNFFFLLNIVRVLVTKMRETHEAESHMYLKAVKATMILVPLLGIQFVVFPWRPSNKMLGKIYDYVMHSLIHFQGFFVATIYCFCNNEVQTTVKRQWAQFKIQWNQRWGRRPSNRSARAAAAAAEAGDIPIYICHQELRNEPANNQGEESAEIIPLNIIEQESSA
Procedure, shortened: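 Competition binding by SPA with cell membranes (35 ng/μL) and SPA beads in 50 mM Hepes pH 7.4 with 1 mM CaCl2, 5 mM MgCl2, 0.1% OA and 0.02% Tween20. Incubated 120 min at 25 °C with shaking, then counted.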

IC50 [1]: 0.958 nM | Ratio rCT/rAmylin binding (rat calcitonin receptor [2]): 34.6 | IC50 (rat calcitonin receptor [3]): 33.1 nM | Ratio hCT/hAmylin binding [4]: 11.1
B1: N^ε1-[(4S)-4-carboxy-4-(19-carboxynonadecanoylamino)butanoyl]-[Glu14,Arg17,Pro21,Pro27,His34,Glu35]-h-amylin (peptide)
peptide: K([γGlu-C20 diacid])CNTATCATQRLAEFLRHSSPNFGAIPSSTNVGHETY-NH2
modifications: disulfide 2-7; N-terminus assumed
SMILES: CC[C@H](C)[C@H](NC(=O)[C@H](C)NC(=O)CNC(=O)[C@H](Cc1ccccc1)NC(=O)[C@H](CC(N)=O)NC(=O)[C@@H]1CCCN1C(=O)[C@H](CO)NC(=O)[C@H](CO)NC(=O)[C@H](Cc1c[nH]cn1)NC(=O)[C@H](CCCNC(=N)N)NC(=O)[C@H](CC(C)C)NC(=O)[C@H](Cc1ccccc1)NC(=O)[C@H](CCC(=O)O)NC(=O)[C@H](C)NC(=O)[C@H](CC(C)C)NC(=O)[C@H](CCCNC(=N)N)NC(=O)[C@H](CCC(N)=O)NC(=O)[C@@H](NC(=O)[C@H](C)NC(=O)[C@@H]1CSSC[C@H](NC(=O)[C@@H](N)CCCCNC(=O)CC[C@H](NC(=O)CCCCCCCCCCCCCCCCCCC(=O)O)C(=O)O)C(=O)N[C@@H](CC(N)=O)C(=O)N[C@@H]([C@@H](C)O)C(=O)N[C@@H](C)C(=O)N[C@@H]([C@@H](C)O)C(=O)N1)[C@@H](C)O)C(=O)N1CCC[C@H]1C(=O)N[C@@H](CO)C(=O)N[C@@H](CO)C(=O)N[C@H](C(=O)N[C@@H](CC(N)=O)C(=O)N[C@H](C(=O)NCC(=O)N[C@@H](Cc1c[nH]cn1)C(=O)N[C@@H](CCC(=O)O)C(=O)N[C@H](C(=O)N[C@@H](Cc1ccc(O)cc1)C(N)=O)[C@@H](C)O)C(C)C)[C@@H](C)O
notes: also called compound 107

IC50 [1]: 0.164 nM | Ratio rCT/rAmylin binding (rat calcitonin receptor [2]): 63.2 | IC50 (rat calcitonin receptor [3]): 10.4 nM | Ratio hCT/hAmylin binding [4]: 13.3
B2: N^ε1-[(4S)-4-carboxy-4-(19-carboxynonadecanoylamino)butanoyl]-[Glu14,Arg17,Pro21,Pro27,Pro34,Glu35]-h-amylin (peptide)
peptide: K([γGlu-C20 diacid])CNTATCATQRLAEFLRHSSPNFGAIPSSTNVGPETY-NH2
modifications: disulfide 2-7; N-terminus assumed
SMILES: CC[C@H](C)[C@H](NC(=O)[C@H](C)NC(=O)CNC(=O)[C@H](Cc1ccccc1)NC(=O)[C@H](CC(N)=O)NC(=O)[C@@H]1CCCN1C(=O)[C@H](CO)NC(=O)[C@H](CO)NC(=O)[C@H](Cc1c[nH]cn1)NC(=O)[C@H](CCCNC(=N)N)NC(=O)[C@H](CC(C)C)NC(=O)[C@H](Cc1ccccc1)NC(=O)[C@H](CCC(=O)O)NC(=O)[C@H](C)NC(=O)[C@H](CC(C)C)NC(=O)[C@H](CCCNC(=N)N)NC(=O)[C@H](CCC(N)=O)NC(=O)[C@@H](NC(=O)[C@H](C)NC(=O)[C@@H]1CSSC[C@H](NC(=O)[C@@H](N)CCCCNC(=O)CC[C@H](NC(=O)CCCCCCCCCCCCCCCCCCC(=O)O)C(=O)O)C(=O)N[C@@H](CC(N)=O)C(=O)N[C@@H]([C@@H](C)O)C(=O)N[C@@H](C)C(=O)N[C@@H]([C@@H](C)O)C(=O)N1)[C@@H](C)O)C(=O)N1CCC[C@H]1C(=O)N[C@@H](CO)C(=O)N[C@@H](CO)C(=O)N[C@H](C(=O)N[C@@H](CC(N)=O)C(=O)N[C@H](C(=O)NCC(=O)N1CCC[C@H]1C(=O)N[C@@H](CCC(=O)O)C(=O)N[C@H](C(=O)N[C@@H](Cc1ccc(O)cc1)C(N)=O)[C@@H](C)O)C(C)C)[C@@H](C)O

IC50 [1]: 3.14 nM | Ratio rCT/rAmylin binding (rat calcitonin receptor [2]): 46.5 | IC50 (rat calcitonin receptor [3]): 146 nM | Ratio hCT/hAmylin binding [4]: 91.8
B3: N^ε1-[(4S)-4-carboxy-4-(19-carboxynonadecanoylamino)butanoyl]-[His14,Arg17,Pro21,Pro27,Arg34]-h-amylin (peptide)
peptide: K([γGlu-C20 diacid])CNTATCATQRLAHFLRHSSPNFGAIPSSTNVGRNTY-NH2
modifications: disulfide 2-7; N-terminus assumed
SMILES: CC[C@H](C)[C@H](NC(=O)[C@H](C)NC(=O)CNC(=O)[C@H](Cc1ccccc1)NC(=O)[C@H](CC(N)=O)NC(=O)[C@@H]1CCCN1C(=O)[C@H](CO)NC(=O)[C@H](CO)NC(=O)[C@H](Cc1c[nH]cn1)NC(=O)[C@H](CCCNC(=N)N)NC(=O)[C@H](CC(C)C)NC(=O)[C@H](Cc1ccccc1)NC(=O)[C@H](Cc1c[nH]cn1)NC(=O)[C@H](C)NC(=O)[C@H](CC(C)C)NC(=O)[C@H](CCCNC(=N)N)NC(=O)[C@H](CCC(N)=O)NC(=O)[C@@H](NC(=O)[C@H](C)NC(=O)[C@@H]1CSSC[C@H](NC(=O)[C@@H](N)CCCCNC(=O)CC[C@H](NC(=O)CCCCCCCCCCCCCCCCCCC(=O)O)C(=O)O)C(=O)N[C@@H](CC(N)=O)C(=O)N[C@@H]([C@@H](C)O)C(=O)N[C@@H](C)C(=O)N[C@@H]([C@@H](C)O)C(=O)N1)[C@@H](C)O)C(=O)N1CCC[C@H]1C(=O)N[C@@H](CO)C(=O)N[C@@H](CO)C(=O)N[C@H](C(=O)N[C@@H](CC(N)=O)C(=O)N[C@H](C(=O)NCC(=O)N[C@@H](CCCNC(=N)N)C(=O)N[C@@H](CC(N)=O)C(=O)N[C@H](C(=O)N[C@@H](Cc1ccc(O)cc1)C(N)=O)[C@@H](C)O)C(C)C)[C@@H](C)O
notes: also called compound 85

IC50 [1]: 0.188 nM | Ratio rCT/rAmylin binding (rat calcitonin receptor [2]): 1.1 | IC50 (rat calcitonin receptor [3]): 0.206 nM | Ratio hCT/hAmylin binding [4]: 0.5
B4: N^ε1-[(4S)-4-carboxy-4-(19-carboxynonadecanoylamino)butanoyl]-[Glu14,Arg17,Pro21,Pro27,Pro34,Pro37]-h-amylin (peptide)
peptide: K([γGlu-C20 diacid])CNTATCATQRLAEFLRHSSPNFGAIPSSTNVGPNTP-NH2
modifications: disulfide 2-7; N-terminus assumed
SMILES: CC[C@H](C)[C@H](NC(=O)[C@H](C)NC(=O)CNC(=O)[C@H](Cc1ccccc1)NC(=O)[C@H](CC(N)=O)NC(=O)[C@@H]1CCCN1C(=O)[C@H](CO)NC(=O)[C@H](CO)NC(=O)[C@H](Cc1c[nH]cn1)NC(=O)[C@H](CCCNC(=N)N)NC(=O)[C@H](CC(C)C)NC(=O)[C@H](Cc1ccccc1)NC(=O)[C@H](CCC(=O)O)NC(=O)[C@H](C)NC(=O)[C@H](CC(C)C)NC(=O)[C@H](CCCNC(=N)N)NC(=O)[C@H](CCC(N)=O)NC(=O)[C@@H](NC(=O)[C@H](C)NC(=O)[C@@H]1CSSC[C@H](NC(=O)[C@@H](N)CCCCNC(=O)CC[C@H](NC(=O)CCCCCCCCCCCCCCCCCCC(=O)O)C(=O)O)C(=O)N[C@@H](CC(N)=O)C(=O)N[C@@H]([C@@H](C)O)C(=O)N[C@@H](C)C(=O)N[C@@H]([C@@H](C)O)C(=O)N1)[C@@H](C)O)C(=O)N1CCC[C@H]1C(=O)N[C@@H](CO)C(=O)N[C@@H](CO)C(=O)N[C@H](C(=O)N[C@@H](CC(N)=O)C(=O)N[C@H](C(=O)NCC(=O)N1CCC[C@H]1C(=O)N[C@@H](CC(N)=O)C(=O)N[C@H](C(=O)N1CCC[C@H]1C(N)=O)[C@@H](C)O)C(C)C)[C@@H](C)O

IC50 [1]: 0.104 nM | Ratio rCT/rAmylin binding (rat calcitonin receptor [2]): 52.2 | IC50 (rat calcitonin receptor [3]): 5.43 nM | Ratio hCT/hAmylin binding [4]: 21.2
B5: N^ε1-[(4S)-4-carboxy-4-(19-carboxynonadecanoylamino)butanoyl]-[Glu14,Arg17,Pro21,Pro27,Pro34,His35]-h-amylin (peptide)
peptide: K([γGlu-C20 diacid])CNTATCATQRLAEFLRHSSPNFGAIPSSTNVGPHTY-NH2
modifications: disulfide 2-7

IC50 [1]: 0.339 nM | Ratio rCT/rAmylin binding (rat calcitonin receptor [2]): 45.5 | IC50 (rat calcitonin receptor [3]): 15.4 nM | Ratio hCT/hAmylin binding [4]: 38.6
B6: N^ε1-[(4S)-4-carboxy-4-(19-carboxynonadecanoylamino)butanoyl]-[Glu14,Arg17,Pro21,Pro27,Pro34,Arg35]-h-amylin (peptide)
peptide: K([γGlu-C20 diacid])CNTATCATQRLAEFLRHSSPNFGAIPSSTNVGPRTY-NH2
modifications: disulfide 2-7; N-terminus assumed
SMILES: CC[C@H](C)[C@H](NC(=O)[C@H](C)NC(=O)CNC(=O)[C@H](Cc1ccccc1)NC(=O)[C@H](CC(N)=O)NC(=O)[C@@H]1CCCN1C(=O)[C@H](CO)NC(=O)[C@H](CO)NC(=O)[C@H](Cc1c[nH]cn1)NC(=O)[C@H](CCCNC(=N)N)NC(=O)[C@H](CC(C)C)NC(=O)[C@H](Cc1ccccc1)NC(=O)[C@H](CCC(=O)O)NC(=O)[C@H](C)NC(=O)[C@H](CC(C)C)NC(=O)[C@H](CCCNC(=N)N)NC(=O)[C@H](CCC(N)=O)NC(=O)[C@@H](NC(=O)[C@H](C)NC(=O)[C@@H]1CSSC[C@H](NC(=O)[C@@H](N)CCCCNC(=O)CC[C@H](NC(=O)CCCCCCCCCCCCCCCCCCC(=O)O)C(=O)O)C(=O)N[C@@H](CC(N)=O)C(=O)N[C@@H]([C@@H](C)O)C(=O)N[C@@H](C)C(=O)N[C@@H]([C@@H](C)O)C(=O)N1)[C@@H](C)O)C(=O)N1CCC[C@H]1C(=O)N[C@@H](CO)C(=O)N[C@@H](CO)C(=O)N[C@H](C(=O)N[C@@H](CC(N)=O)C(=O)N[C@H](C(=O)NCC(=O)N1CCC[C@H]1C(=O)N[C@@H](CCCNC(=N)N)C(=O)N[C@H](C(=O)N[C@@H](Cc1ccc(O)cc1)C(N)=O)[C@@H](C)O)C(C)C)[C@@H](C)O
